From patent US20260070987A1

B1: equine IgG1 T286V (antibody, part only; not given: Variable domains, not shown: another chain or arm of the molecule)
constant: ASTTAPKVFALAPGCGTTSDSTVALGCLVSGYFPEPVKVSWNSGSLTSGVHTFPSVLQSSGFYSLSSMVTVPASTWTSETYICNVVHAASNFKVDKRIEPIPDNHQKVCDMSKCPKCPAPELLGGPSVFIFPPNPKDTLMITRTPEVTCVVVDVSQENPDVKFNWYMDGVEVRVATTRPKEEQFNSTYRVVSVLRIQHQDWLSGKEFKCKVNNQALPQPIERTITKTKGRSQEPQVYVLAPHPDELSKSKVSVTCLVKDFYPPEINIEWQSNGQPELETKYSTTQAQQDSDGSYFLYSKLSVDRNRWQQGTTFTCGVMHEALHNHYTQKNVSKNPGK
B2: equine IgG4 D312R (antibody, part only; not given: variable domains, not shown: another chain or arm of the molecule)
constant: ASTTAPKVFPLASHSAATSGSTVALGCLVSSYFPEPVTVSWNSGALTSGVHTFPSVLQSSGLYSLSSMVTVPASSLKSQTYICNVAHPASSTKVDKKIVIKECNGGCPAECLQVGPSVFIFPPKPKDVLMISRTPTVTCVVVDVGHDFPDVQFNWYVDGVETHTATTEPKQEQFNSTYRVVSVLPIQHKRWLSGKEFKCKVNNKALPAPVERTISKPTGQPREPQVYVLAPHRDELSKNKVSVTCLVKDFYPTDIDIEWKSNGQPEPETKYSTTPAQLDSDGSYFLYSKLTVETNRWQQGTTFTCAVMHEALHNHYTEKSVSKSPGK
B3: equine IgG4 D312W (antibody, part only; not given: Variable domains, not shown: another chain or arm of the molecule)
constant: ASTTAPKVFPLASHSAATSGSTVALGCLVSSYFPEPVTVSWNSGALTSGVHTFPSVLQSSGLYSLSSMVTVPASSLKSQTYICNVAHPASSTKVDKKIVIKECNGGCPAECLQVGPSVFIFPPKPKDVLMISRTPTVTCVVVDVGHDFPDVQFNWYVDGVETHTATTEPKQEQFNSTYRVVSVLPIQHKWWLSGKEFKCKVNNKALPAPVERTISKPTGQPREPQVYVLAPHRDELSKNKVSVTCLVKDFYPTDIDIEWKSNGQPEPETKYSTTPAQLDSDGSYFLYSKLTVETNRWQQGTTFTCAVMHEALHNHYTEKSVSKSPGK
B4: equine IgG4 D312Y (antibody, part only; not given: variable domains, not shown: another chain or arm of the molecule)
constant: ASTTAPKVFPLASHSAATSGSTVALGCLVSSYFPEPVTVSWNSGALTSGVHTFPSVLQSSGLYSLSSMVTVPASSLKSQTYICNVAHPASSTKVDKKIVIKECNGGCPAECLQVGPSVFIFPPKPKDVLMISRTPTVTCVVVDVGHDFPDVQFNWYVDGVETHTATTEPKQEQFNSTYRVVSVLPIQHKYWLSGKEFKCKVNNKALPAPVERTISKPTGQPREPQVYVLAPHRDELSKNKVSVTCLVKDFYPTDIDIEWKSNGQPEPETKYSTTPAQLDSDGSYFLYSKLTVETNRWQQGTTFTCAVMHEALHNHYTEKSVSKSPGK
B5: equine IgG4 Y436D (antibody, part only; not given: variable domains, not shown: another chain or arm of the molecule)
constant: ASTTAPKVFPLASHSAATSGSTVALGCLVSSYFPEPVTVSWNSGALTSGVHTFPSVLQSSGLYSLSSMVTVPASSLKSQTYICNVAHPASSTKVDKKIVIKECNGGCPAECLQVGPSVFIFPPKPKDVLMISRTPTVTCVVVDVGHDFPDVQFNWYVDGVETHTATTEPKQEQFNSTYRVVSVLPIQHKDWLSGKEFKCKVNNKALPAPVERTISKPTGQPREPQVYVLAPHRDELSKNKVSVTCLVKDFYPTDIDIEWKSNGQPEPETKYSTTPAQLDSDGSYFLYSKLTVETNRWQQGTTFTCAVMHEALHNHDTEKSVSKSPGK
B6: equine IgG4 Y436G (antibody, part only; not given: variable domains, not shown: another chain or arm of the molecule)
constant: ASTTAPKVFPLASHSAATSGSTVALGCLVSSYFPEPVTVSWNSGALTSGVHTFPSVLQSSGLYSLSSMVTVPASSLKSQTYICNVAHPASSTKVDKKIVIKECNGGCPAECLQVGPSVFIFPPKPKDVLMISRTPTVTCVVVDVGHDFPDVQFNWYVDGVETHTATTEPKQEQFNSTYRVVSVLPIQHKDWLSGKEFKCKVNNKALPAPVERTISKPTGQPREPQVYVLAPHRDELSKNKVSVTCLVKDFYPTDIDIEWKSNGQPEPETKYSTTPAQLDSDGSYFLYSKLTVETNRWQQGTTFTCAVMHEALHNHGTEKSVSKSPGK
B7: equine IgG4 D312S (antibody, part only; not given: variable domains, not shown: another chain or arm of the molecule)
constant: ASTTAPKVFPLASHSAATSGSTVALGCLVSSYFPEPVTVSWNSGALTSGVHTFPSVLQSSGLYSLSSMVTVPASSLKSQTYICNVAHPASSTKVDKKIVIKECNGGCPAECLQVGPSVFIFPPKPKDVLMISRTPTVTCVVVDVGHDFPDVQFNWYVDGVETHTATTEPKQEQFNSTYRVVSVLPIQHKSWLSGKEFKCKVNNKALPAPVERTISKPTGQPREPQVYVLAPHRDELSKNKVSVTCLVKDFYPTDIDIEWKSNGQPEPETKYSTTPAQLDSDGSYFLYSKLTVETNRWQQGTTFTCAVMHEALHNHYTEKSVSKSPGK
B8: equine IgG4 Y436I (antibody, part only; not given: variable domains, not shown: another chain or arm of the molecule)
constant: ASTTAPKVFPLASHSAATSGSTVALGCLVSSYFPEPVTVSWNSGALTSGVHTFPSVLQSSGLYSLSSMVTVPASSLKSQTYICNVAHPASSTKVDKKIVIKECNGGCPAECLQVGPSVFIFPPKPKDVLMISRTPTVTCVVVDVGHDFPDVQFNWYVDGVETHTATTEPKQEQFNSTYRVVSVLPIQHKDWLSGKEFKCKVNNKALPAPVERTISKPTGQPREPQVYVLAPHRDELSKNKVSVTCLVKDFYPTDIDIEWKSNGQPEPETKYSTTPAQLDSDGSYFLYSKLTVETNRWQQGTTFTCAVMHEALHNHITEKSVSKSPGK
B9: equine IgG4 D312T (antibody, part only; not given: variable domains, not shown: another chain or arm of the molecule)
constant: ASTTAPKVFPLASHSAATSGSTVALGCLVSSYFPEPVTVSWNSGALTSGVHTFPSVLQSSGLYSLSSMVTVPASSLKSQTYICNVAHPASSTKVDKKIVIKECNGGCPAECLQVGPSVFIFPPKPKDVLMISRTPTVTCVVVDVGHDFPDVQFNWYVDGVETHTATTEPKQEQFNSTYRVVSVLPIQHKTWLSGKEFKCKVNNKALPAPVERTISKPTGQPREPQVYVLAPHRDELSKNKVSVTCLVKDFYPTDIDIEWKSNGQPEPETKYSTTPAQLDSDGSYFLYSKLTVETNRWQQGTTFTCAVMHEALHNHYTEKSVSKSPGK
B10: equine IgG4 Y436H (antibody, part only; not given: variable domains, not shown: another chain or arm of the molecule)
constant: ASTTAPKVFPLASHSAATSGSTVALGCLVSSYFPEPVTVSWNSGALTSGVHTFPSVLQSSGLYSLSSMVTVPASSLKSQTYICNVAHPASSTKVDKKIVIKECNGGCPAECLQVGPSVFIFPPKPKDVLMISRTPTVTCVVVDVGHDFPDVQFNWYVDGVETHTATTEPKQEQFNSTYRVVSVLPIQHKDWLSGKEFKCKVNNKALPAPVERTISKPTGQPREPQVYVLAPHRDELSKNKVSVTCLVKDFYPTDIDIEWKSNGQPEPETKYSTTPAQLDSDGSYFLYSKLTVETNRWQQGTTFTCAVMHEALHNHHTEKSVSKSPGK
B11: equine IgG4 Y436C (antibody, part only; not given: Variable domains, not shown: another chain or arm of the molecule)
constant: ASTTAPKVFPLASHSAATSGSTVALGCLVSSYFPEPVTVSWNSGALTSGVHTFPSVLQSSGLYSLSSMVTVPASSLKSQTYICNVAHPASSTKVDKKIVIKECNGGCPAECLQVGPSVFIFPPKPKDVLMISRTPTVTCVVVDVGHDFPDVQFNWYVDGVETHTATTEPKQEQFNSTYRVVSVLPIQHKDWLSGKEFKCKVNNKALPAPVERTISKPTGQPREPQVYVLAPHRDELSKNKVSVTCLVKDFYPTDIDIEWKSNGQPEPETKYSTTPAQLDSDGSYFLYSKLTVETNRWQQGTTFTCAVMHEALHNHCTEKSVSKSPGK
B12: equine IgG4 D312V (antibody, part only; not given: variable domains, not shown: another chain or arm of the molecule)
constant: ASTTAPKVFPLASHSAATSGSTVALGCLVSSYFPEPVTVSWNSGALTSGVHTFPSVLQSSGLYSLSSMVTVPASSLKSQTYICNVAHPASSTKVDKKIVIKECNGGCPAECLQVGPSVFIFPPKPKDVLMISRTPTVTCVVVDVGHDFPDVQFNWYVDGVETHTATTEPKQEQFNSTYRVVSVLPIQHKVWLSGKEFKCKVNNKALPAPVERTISKPTGQPREPQVYVLAPHRDELSKNKVSVTCLVKDFYPTDIDIEWKSNGQPEPETKYSTTPAQLDSDGSYFLYSKLTVETNRWQQGTTFTCAVMHEALHNHYTEKSVSKSPGK
B13: equine IgG4 Y436F (antibody, part only; not given: variable domains, not shown: another chain or arm of the molecule)
constant: ASTTAPKVFPLASHSAATSGSTVALGCLVSSYFPEPVTVSWNSGALTSGVHTFPSVLQSSGLYSLSSMVTVPASSLKSQTYICNVAHPASSTKVDKKIVIKECNGGCPAECLQVGPSVFIFPPKPKDVLMISRTPTVTCVVVDVGHDFPDVQFNWYVDGVETHTATTEPKQEQFNSTYRVVSVLPIQHKDWLSGKEFKCKVNNKALPAPVERTISKPTGQPREPQVYVLAPHRDELSKNKVSVTCLVKDFYPTDIDIEWKSNGQPEPETKYSTTPAQLDSDGSYFLYSKLTVETNRWQQGTTFTCAVMHEALHNHFTEKSVSKSPGK
B14: equine IgG4 Y436E (antibody, part only; not given: variable domains, not shown: another chain or arm of the molecule)
constant: ASTTAPKVFPLASHSAATSGSTVALGCLVSSYFPEPVTVSWNSGALTSGVHTFPSVLQSSGLYSLSSMVTVPASSLKSQTYICNVAHPASSTKVDKKIVIKECNGGCPAECLQVGPSVFIFPPKPKDVLMISRTPTVTCVVVDVGHDFPDVQFNWYVDGVETHTATTEPKQEQFNSTYRVVSVLPIQHKDWLSGKEFKCKVNNKALPAPVERTISKPTGQPREPQVYVLAPHRDELSKNKVSVTCLVKDFYPTDIDIEWKSNGQPEPETKYSTTPAQLDSDGSYFLYSKLTVETNRWQQGTTFTCAVMHEALHNHETEKSVSKSPGK
B15: equine IgG4 Y436A (antibody, part only; not given: variable domains, not shown: another chain or arm of the molecule)
constant: ASTTAPKVFPLASHSAATSGSTVALGCLVSSYFPEPVTVSWNSGALTSGVHTFPSVLQSSGLYSLSSMVTVPASSLKSQTYICNVAHPASSTKVDKKIVIKECNGGCPAECLQVGPSVFIFPPKPKDVLMISRTPTVTCVVVDVGHDFPDVQFNWYVDGVETHTATTEPKQEQFNSTYRVVSVLPIQHKDWLSGKEFKCKVNNKALPAPVERTISKPTGQPREPQVYVLAPHRDELSKNKVSVTCLVKDFYPTDIDIEWKSNGQPEPETKYSTTPAQLDSDGSYFLYSKLTVETNRWQQGTTFTCAVMHEALHNHATEKSVSKSPGK
B16: equine IgG4 Y436K (antibody, part only; not given: variable domains, not shown: another chain or arm of the molecule)
constant: ASTTAPKVFPLASHSAATSGSTVALGCLVSSYFPEPVTVSWNSGALTSGVHTFPSVLQSSGLYSLSSMVTVPASSLKSQTYICNVAHPASSTKVDKKIVIKECNGGCPAECLQVGPSVFIFPPKPKDVLMISRTPTVTCVVVDVGHDFPDVQFNWYVDGVETHTATTEPKQEQFNSTYRVVSVLPIQHKDWLSGKEFKCKVNNKALPAPVERTISKPTGQPREPQVYVLAPHRDELSKNKVSVTCLVKDFYPTDIDIEWKSNGQPEPETKYSTTPAQLDSDGSYFLYSKLTVETNRWQQGTTFTCAVMHEALHNHKTEKSVSKSPGK

What follows are binders tested against equine FcRn (large alpha subunit p51) / equine beta-2-microglobulin complex, biotinylated (equine) (UniProt P30441) (assay: SPR (Biacore), pH 6).
Sequence of UniProt P30441 (P30441 21-118, one chain of several): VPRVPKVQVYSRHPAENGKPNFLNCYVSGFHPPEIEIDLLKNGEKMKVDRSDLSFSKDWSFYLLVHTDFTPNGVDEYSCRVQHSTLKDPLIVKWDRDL
In the case of B1, the Kd is reported as 16.2 nM.
B2 gave a Kd of 18.5 nM.
For B3, the Kd was 12.1 nM.
B4 gave a Kd of 19.1 nM.
Binder B5 has a Kd of 25.5 nM.
For B6, the Kd was 34.1 nM.
With B7 the Kd was 17.4 nM.
With B8 the Kd was 12 nM.
For B9, the Kd was 28.7 nM.
B10 gave a Kd of 61.6 nM.
In the case of B11, the Kd is reported as 57 nM.
B12 showed a Kd of 31.1 nM.
With B13 the Kd was 12.6 nM.
B14 gave a Kd of 91.5 nM.
B15 showed a Kd of 21.6 nM.
For B16, the Kd was 20.3 nM.
